For assay [1], the target named is anti-HER2 IgG1 heavy chain (biosimilar Herceptin). Nature of the assay: non-reducing SDS-PAGE with western blot; crude supernatant of stably transfected CHO DG44 pools at the end of culture, non-reducing conditions; detected with anti-human IgG Fc and anti-human kappa LC antibodies; species assigned by molecular weight.
The target in assay [2] is anti-HER2 IgG1 light chain (biosimilar Herceptin). The assay is described as above.

Among the data in paper PMC3660568 are stoichiometry N values, retold here.

Turning to “anti-HER2 IgG1 heavy chain (biosimilar Herceptin)”, the stoichiometry N in assay [1] came out at 2.

“anti-HER2 IgG1 light chain (biosimilar Herceptin)” yielded a stoichiometry N in assay [2] of 2.
